Test results taken from patent US20060281118A1 (UNIVERSITY OF MEDICINE AND DENTISTRY OF NEW JERSEY, published 2006).

T1: Cim3 (yeast, UniProt Q01939 2-405)
T1 construct: Endogenous protein in yeast extracts, detected by immunoblot as part of the proteasome complex; also called Sug1
T1 sequence (looked up): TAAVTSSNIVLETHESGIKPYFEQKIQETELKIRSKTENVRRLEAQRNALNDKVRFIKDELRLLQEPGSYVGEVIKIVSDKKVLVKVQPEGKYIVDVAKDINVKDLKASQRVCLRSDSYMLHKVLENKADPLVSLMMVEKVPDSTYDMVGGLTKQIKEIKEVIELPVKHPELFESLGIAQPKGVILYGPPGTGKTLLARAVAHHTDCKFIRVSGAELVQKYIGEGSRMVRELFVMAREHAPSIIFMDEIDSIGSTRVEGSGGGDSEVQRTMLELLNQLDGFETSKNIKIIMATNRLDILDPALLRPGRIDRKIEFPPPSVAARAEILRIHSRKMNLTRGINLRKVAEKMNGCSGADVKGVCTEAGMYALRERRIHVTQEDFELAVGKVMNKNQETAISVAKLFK

T2: Cim5 (yeast, UniProt P33299 1-467)
T2 construct: Endogenous protein in yeast extracts, detected by immunoblot as part of the proteasome complex
T2 sequence (looked up): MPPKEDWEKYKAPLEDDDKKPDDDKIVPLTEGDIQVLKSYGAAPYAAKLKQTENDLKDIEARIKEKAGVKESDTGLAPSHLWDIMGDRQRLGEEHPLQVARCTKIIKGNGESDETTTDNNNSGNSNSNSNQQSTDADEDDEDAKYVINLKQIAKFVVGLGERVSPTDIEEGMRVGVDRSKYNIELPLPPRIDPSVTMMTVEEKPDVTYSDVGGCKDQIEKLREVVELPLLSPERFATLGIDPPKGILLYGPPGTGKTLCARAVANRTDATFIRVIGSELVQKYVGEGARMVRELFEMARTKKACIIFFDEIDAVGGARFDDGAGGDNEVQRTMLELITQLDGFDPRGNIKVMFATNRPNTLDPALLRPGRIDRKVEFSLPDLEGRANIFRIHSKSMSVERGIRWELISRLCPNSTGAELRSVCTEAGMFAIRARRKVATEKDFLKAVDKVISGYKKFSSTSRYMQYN


What was measured:
Pre1-FLAG (yeast) = Pre1-FLAG (yeast) (UniProt P22141); assay: co-immunoprecipitation on FLAG-agarose; amount left on the beads after 18 hours at 4° C.
Sequence of Pre1-FLAG (yeast) (P22141 whole entry): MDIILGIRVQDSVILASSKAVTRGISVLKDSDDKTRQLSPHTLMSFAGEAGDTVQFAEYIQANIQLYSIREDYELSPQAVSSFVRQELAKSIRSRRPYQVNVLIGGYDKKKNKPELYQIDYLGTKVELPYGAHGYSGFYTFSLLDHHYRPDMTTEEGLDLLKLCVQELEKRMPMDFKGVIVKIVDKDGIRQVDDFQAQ

Cim3 = target: T1, Cim3; assay: GST pull-down from yeast extracts, Cim3 and Cim5 immunoblot (FIG. 13A, lane 5)
Method: (§1) GST linked proteins were expressed in yeast and purified on glutathione-SEPHAROSE. Proteins retained on the beads were resolved in SDS-polyacrylamide gels, transferred to nitrocellulose, and incubated with antisera specific to proteasome subunits Cim3 and Cim5. The blot was developed by enhanced chemiluminescence ([…]). […] Yeast strains expressing the GST linked proteins as well as Pre1-FLAG, FIG. 13B. The blot was developed with anti-FLAG antiserum (KODAK). The position of molecular weight markers are indicated.
(§2) Extracts were incubated with glutathione-SEPHAROSE, and bound proteins separated in a SDS-polyacrylamide gel, transferred to nitrocellulose and analyzed by immunological methods. […] The interacting proteins were analyzed via western blot analysis with Cim5 antibodies which cross-react with Mss1, a human counterpart of yeast Cim5 (Ghislain, et al. (1993) Nature 366:358-361).

Cim5 = target: T2, Cim5; assay: as above
Method: as §1, §2

percent of cellular Rad23 precipitated with Pre1-FLAG (Pre1-FLAG (yeast)) | binding result (Cim3) | binding result (Cim5) | Molecule
5% | – | – | native Rad23 (from UniProt P32628 1-398)
– | no binding | no binding | GST-UbL^HRA (other, The UbL is linked to the C-terminus of GST; also called ubiquitin-like domain of HHR23A linked to GST; not shown: glutathione S-transferase (GST)) MAVTITLKTLQQQTFKIRMEPDETVKVLKEKIEAEKGRDAFPVAGQKLIYAGKILSDDVPIRDYRIDEKNFVVVMVTKTKA
